Assays:
GST-Gαi3 (GDP loaded) = molecular target: T1, GST-Gαi3 (GDP loaded) (rat, UniProt P08753 1-354); test: GST pulldown with GDP-loaded GST-Gαi3, anti-His immunoblot
T1 construct: not shown: glutathione S-transferase tag encoded by pGEX-4T-1

His-Gαi3 (GDP-loaded) = molecular target: T2, His-Gαi3 (GDP-loaded) (UniProt P08753 1-354); test: GST pulldown: GST-GIV-CT on glutathione-agarose beads with 0.01-3 µM His-Gαi3; anti-His band intensities fitted to a single-site hyperbola; three experiments
T2 construct: Purified protein, GDP-loaded
T2 sequence (P08753 whole entry): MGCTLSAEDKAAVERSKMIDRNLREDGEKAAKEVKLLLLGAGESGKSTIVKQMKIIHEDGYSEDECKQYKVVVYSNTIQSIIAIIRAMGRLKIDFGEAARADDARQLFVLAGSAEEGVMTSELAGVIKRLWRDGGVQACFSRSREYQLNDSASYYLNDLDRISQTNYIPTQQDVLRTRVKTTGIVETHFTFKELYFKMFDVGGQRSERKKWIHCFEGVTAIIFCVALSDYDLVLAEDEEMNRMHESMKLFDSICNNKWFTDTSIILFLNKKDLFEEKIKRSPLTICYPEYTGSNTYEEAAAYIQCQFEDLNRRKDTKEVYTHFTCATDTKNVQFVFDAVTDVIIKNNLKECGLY

T1 sequence (P08753 whole entry): as above

B1: TAT-GIV-CT-F1685A (peptide)
chain: MRGSHHHHHHGMASMTGGQQMGRDLYDDDDKDRWGSKLGYGRKKRRQRRRGGSTMSGYPYDVPDYAGSMGGSGHSGETLESRHHKIKTGSPGSEVVTLQQALEESNKLTSVQIKSSSQENLLDEVMKSLSVSSDFLGKDKPVSCGLARSVSGKTPGDFYDRRTTKPEFLRPGPRKTEDTYFISSAGKPTPGTQGKIKLVKESSLSRQSKDSNPYATLPRASSVISTAEGTTRRTSIHDFLTKDSRLPISVDSPPAAADSNTTAASNVDKVQESRNSKSRSREQQSS
notes: Recombinant, made in E. coli; GEF-deficient mutant; also called TAT-GIV-CT-FA; FA
binding result (GST-Gαi3 (GDP loaded)): no binding

B2: GST-GIV-CT (amino acids 1660-1870) (other)
chain: ETLESRHHKIKTGSPGSEVVTLQQFLEESNKLTSVQIKSSSQENLLDEVMKSLSVSSDFLGKDKPVSCGLARSVSGKTPGDFYDRRTTKPEFLRPGPRKTEDTYFISSAGKPTPGTQGKIKLVKESSLSRQSKDSNPYATLPRASSVISTAEGTTRRTSIHDFLTKDSRLPISVDSPPAAADSNTTAASNVDKVQESRNSKSRSREQQSS
notes: Immobilised on glutathione-agarose beads; also called GST-tagged GIV-CT peptide; not shown: glutathione S-transferase tag
Kd (His-Gαi3 (GDP-loaded)): 240 nM

From US20180104307A1 (University of California, published 2018)
